Results: US20220175781A1, “CD40L COMPOSITIONS AND METHODS FOR TUNABLE REGULATION” (Obsidian Therapeutics, Inc., priority 2019, published 2022)

Tests used:
HEK293T cells [1] = experiment: Soluble CD40L ELISA, transiently transfected HEK293T cells; type: cell-based, human
Protocol: Soluble CD40L (sCD40L) constructs OT-001672, OT-001686, OT-001673, OT-001674, OT-001677, and OT-001684 were transiently transfected into HEK293T cells. Cells were treated with one of the following ligands 1 μM Shield-1, 50 μM TMP, 1 μM Bazedoxifene (BZD) or vehicle control.
The pg/mL levels of soluble CD40L were measured by ELISA (Table 14). Recombinant soluble CD40L was used as the standard in the experiments.

Jurkat cells [2] = experiment: DHFR regulated CD40L expression, transduced Jurkat cells (flow cytometry); type: cell-based; details: for SR: TMP (50 μM) versus Vehicle
Protocol: Jurkat cells were transduced with lentiviruses corresponding to OT-001662, OT-001962, OT-001961, OT-001963. 24 hours after transduction, cells were split and treated with DMSO or 50 μM TMP for another 24 hours until flow cytometry-based analysis. The results are shown in Table 37 where SR indicates stabilization ration.

HEK 293T cells = experiment: hDHFR regulated CD40L surface expression, HEK 293T cells (flow cytometry); type: cell-based, human; details: 50 μM TMP 24 hours
Protocol: HEK 293T cells were transiently […] with hDHFR regulated constructs namely OT-001962, OT-001961, OT-001963 for 24 hours. Following transfection, cells were treated with 50 μM TMP for 24 hours and CD40L cell surface expression was measured using flow cytometry. […] CD40L expression in the absence of ligand was virtually undetectable.

HEK293T cells [3] = experiment: Surface expression of CD40L trimerization mutants, transfected HEK293T cells (FACS); type: cell-based, human; details: transiently transfected HEK293T cells
Protocol: Mutations were engineered within CD40L payload to reduce the binding affinity of CD40L payload for the CD40L endogenously expressed by cells. Constructs OT-002078, OT-002079, OT-002080, OT-002081, OT-002082 were generated with the CD40L trimerization mutants. HEK293T cells were transiently transfected with the constructs and CD40L expression was measured by FACS.

Jurkat cells [4] = experiment: CD40L shedding ELISA of supernatant, Jurkat cells with or without CD40-Fc receptor; type: cell-based; set-up: CD40L levels in supernatant: unit not given here; details: 6 hours
Protocol: Sheddases e.g. ADAM10/17 present in the tumor microenvironment can cleave CD40L thereby preventing the successful activation of CD40 by CD40L. […] OT-001669 which has a deletion of amino acids 1-13 of CD40L was designed to reduce internalization and OT-001668 which has a deletion of amino acids 110-116 of CD40L was designed to remove the ADAM10/17 sites. Jurkat cells stably expressing the full length construct OT-001661, OT-001669, or OT-001668 were cultured for 6 hours with 1.25 μg/ml recombinant human (h) or mouse (m) CD40-Fc receptor or left untreated and tested using an ELISA assay (Table 15).

T cells (CD4 and CD8) = experiment: Cleavage resistant CD40L expression and TMP regulation in T cells; type: cell-based; details: for CD40L expression (percentage of CD40L expressing T cells): day 4
Protocol: T cells were transduced with OT-001668 and on day 4, the percentage of CD40L expressing T cells (within the both CD4 and CD8) subpopulations was calculated.
T cells were transduced with ecDHFR regulated construct OT-001671 that include a CD40L protein that was resistant to cleavage. On day 4 cells were treated with 10 μM TMP for 24 hours. […] In an independent experiment, T cells transduced with varying volumes of virus corresponding to OT-001671 were treated with increasing doses of TMP for 24 hours. In Table 41, 0.5 μL, 2 μL, and 10 μL indicate the different volumes of virus that were used.

[5] = independent experiment with similar setup

B1: OT-001677: Soluble CD40L (sCD40L) construct (protein)
chain: GSSLALSLTADQMVSALLDAEPPILYSEYDPTRPFSEASMMGLLTNLADRELVHMINWAKRVPGFVDLTLHDQVHLLECAWMEILMIGLVWRSMEHPGKLLFAPNLLLDRDQGKCVEGGVEIFDMLLATSSRFRMMNLQGEEFVCLKSIILLNSGVYTFLSSTLKSLEEKDHIHRVLDKITDTLIHLMAKAGLTLQQQHQRLAQLLLILSHIRHMSNKRMEHLYSMKCKNVVPLSDLLLEMLDAHRLGSMHMQKGDQNPQIAAHVISEASSKTTSVLQWAEKGYYTMSNNLVTLENGKQLTVKRQGLYYIYAQVTFCSNREASSQAPFIASLCLKSPGRFERILLRAANTHSSAKPCGQQSIHLGGVFELQPGASVFVNVTDPSQVSHGTGFTSFGLLKL
For B1, the Stabilization Ratio (HEK293T cells [1]; [5]) was 7.2 and the “basal expression in the absence of ligand” value (HEK293T cells [1]; [5]) was “very low basal expression”.

B2: OT-001684: Soluble CD40L (sCD40L) construct (protein)
chain: GSSLALSLTADQMVSALLDAEPPILYSEYDPTRPFSEASMMGLLTNLADRELVHMINWAKRVPGFVDLALHDQVHLLECAWMEILMIGLVWRSMEHPGKLLFAPNLLLDRNQGKCVEGGVEIFDMLLATSSRFRMMNLQGEEFVCLKSIILLNSGVYTFLSSTLKSLEEKDHIHRVLDKITDTLIHLMAKAGLTLQQQHQRLAQLLLILSHIRHMSSKRMEHLYSMKCKNVVPLSDLLLEMLDAHRLGSMHMQKGDQNPQIAAHVISEASSKTTSVLQWAEKGYYTMSNNLVTLENGKQLTVKRQGLYYIYAQVTFCSNREASSQAPFIASLCLKSPGRFERILLRAANTHSSAKPCGQQSIHLGGVFELQPGASVFVNVTDPSQVSHGTGFTSFGLLKL
B2 was tested, and the “Stabilization Ratio” value (HEK293T cells [1]; soluble CD40L +Ligand versus Vehicle, HEK293T cells) was 1.0.

B3: OT-001961: hDHFR regulated CD40L construct (protein)
chain: MVGSLNCIVAVSQNMGIGKNGDLPWPPLRNEFRYFQRMTTTSSVEGKQNLVIMGKKTWFSIPEKNRPLKGRINLVLSRELKEPPQGAHFLSRSLDDALKLTEQPELANKVDMVWIVGGSSVIKEAMNHPGHLKLFVTRIMQDFESDTFFPEIDLEKYKLLPEYPGVLSDVQEEKGIKYKFEVYEKNDHMIETYNQTSPRSAATGLPISMKIFMYLLTVFLITQMIGSALFAVYLHRRLDKIEDERNLHEDFVFMKTIQRCNTGERSLSLLNCEEIKSQFEGFVKDIMLNKEETKKENSFEMQKGDQNPQIAAHVISEASSKTTSVLQWAEKGYYTMSNNLVTLENGKQLTVKRQGLYYIYAQVTFCSNREASSQAPFIASLCLKSPGRFERILLRAANTHSSAKPCGQQSIHLGGVFELQPGASVFVNVTDPSQVSHGTGFTSFGLLKL
B3 was tested, and the “% CD40L expression” value (Jurkat cells [2]; TMP (50 μM)) was 3.5%, the SR (Jurkat cells [2]) was 1.8 and the “% CD40L expression” value (Jurkat cells [2]; Vehicle (DMSO)) was 2%. For the same molecule, the “% CD40L” value (HEK 293T cells) was 14.6%.

B4: OT-001963: hDHFR regulated CD40L construct (protein)
chain: MVGSLNCIVAVSQNMGIGKNGDLPWPPLRNEFRYFQRMTTTSSVEGKQNLVIMGRKTWFSIPEKKRPLKGRINLVLSRELKEPPQGAHFLSRSLDDALKLTEQPELANKVDMVWIVGGSSVIKEAMNHPGHLKLFVTRIMQDFESDTFFPEIDLEKYKLLPEYPGVLSDVQEEKGIKYKFEVYEKNDHMIETYNQTSPRSAATGLPISMKIFMYLLTVFLITQMIGSALFAVYLHRRLDKIEDERNLHEDFVFMKTIQRCNTGERSLSLLNCEEIKSQFEGFVKDIMLNKEETKKENSFEMQKGDQNPQIAAHVISEASSKTTSVLQWAEKGYYTMSNNLVTLENGKQLTVKRQGLYYIYAQVTFCSNREASSQAPFIASLCLKSPGRFERILLRAANTHSSAKPCGQQSIHLGGVFELQPGASVFVNVTDPSQVSHGTGFTSFGLLKL
For B4, the “% CD40L expression” value (Jurkat cells [2]; TMP (50 μM)) was 20%, the SR (Jurkat cells [2]) was 10 and the “% CD40L expression” value (Jurkat cells [2]; Vehicle (DMSO)) was 2%. The “% CD40L” value (HEK 293T cells) was 13.3%.

B5: OT-002078: construct with CD40L trimerization mutant (protein)
chain: MGGSGGGSGGGSGMIETYNQTSPRSAATGLPISMKIFMYLLTVFLITQMIGSALFAVYLHRRLDKIEDERNLHEDFVFMKTIQRCNTGERSLSLLNCEEIKSQFEGFVKDIMLNKEETKKENSFEMQKGDQNPQIAAHVISEASSKTTSVLQWAEKGYYTMSNNLVTLENGKQLTVKRQGLYYIYAQVTFCSNREASSQAPFIASLCLKSPGRFERILLRAANTHSSAKPCGQQSIGLFGVFELQPGASVFVNVTDPSQVSHGTGFTSFGLLKL
In the case of B5, the “% CD40L positive” value (HEK293T cells [3]) is reported as 49.7%.

B6: OT-002079: construct with CD40L trimerization mutant (protein)
chain: MGGSGGGSGGGSGMIETYNQTSPRSAATGLPISMKIFMYLLTVFLITQMIGSALFAVYLHRRLDKIEDERNLHEDFVFMKTIQRCNTGERSLSLLNCEEIKSQFEGFVKDIMLNKEETKKENSFEMQKGDQNPQIAAHVISEASSKTTSVLQWAEKGYYTMSNNLVTLENGKQLTVKRQGLYYIYAQVTFCSNREASSQAPFIASLCLKSPGRFERILLRAANTHSSAKPCGQQSIGLHGVFELQPGASVFVNVTDPSQVSHGTGFTSFGLLKL
With B6 the “% CD40L positive” value (HEK293T cells [3]) was 64.7%.

B7: OT-002080: construct with CD40L trimerization mutant (protein)
chain: MGGSGGGSGGGSGMIETYNQTSPRSAATGLPISMKIFMYLLTVFLITQMIGSALFAVYLHRRLDKIEDERNLHEDFVFMKTIQRCNTGERSLSLLNCEEIKSQFEGFVKDIMLNKEETKKENSFEMQKGDQNPQIAAHVISEASSKTTSVLQWAEKGYYTMSNNLVTLENGKQLTVKRQGLYYIGAQVTFCSNREASSQAPFIASLCLKSPGRFERILLRAANTHSSAKPCGQQSIHLFGVFELQPGASVFVNVTDPSQVSHGTGFTSFGLLKL
With B7 the “% CD40L positive” value (HEK293T cells [3]) was 0.11%.

B8: OT-002082: construct with CD40L trimerization mutant (protein)
chain: MGGSGGGSGGGSGMIETYNQTSPRSAATGLPISMKIFMYLLTVFLITQMIGSALFAVYLHRRLDKIEDERNLHEDFVFMKTIQRCNTGERSLSLLNCEEIKSQFEGFVKDIMLNKEETKKENSFEMQKGDQNPQIAAGVISEASSKTTSVLQWAEKGYYTMSNNLVTLENGKQLTVKRQGLYYIYAQVTFCSNREASSQAPFIASLCLKSPGRFERILLRAANTHSSAKPCGQQSIHLGFVFELQPGASVFVNVTDPSQVSHGTGFTSFGLLKL
With B8 the “% CD40L positive” value (HEK293T cells [3]) was 0.028%.

B9: OT-001668: cleavage resistant CD40L construct, deletion of amino acids 110-116 of CD40L to remove the ADAM10/17 sites (protein)
chain: MHMIETYNQTSPRSAATGLPISMKIFMYLLTVFLITQMIGSALFAVYLHRRLDKIEDERNLHEDFVFMKTIQRCNTGERSLSLLNCEEIKSQFEGFVKDIMLNKEETKKENDQNPQIAAHVISEASSKTTSVLQWAEKGYYTMSNNLVTLENGKQLTVKRQGLYYIYAQVTFCSNREASSQAPFIASLCLKSPGRFERILLRAANTHSSAKPCGQQSIHLGGVFELQPGASVFVNVTDPSQVSHGTGFTSFGLLKL
With B9 the “CD40L levels in supernatant” value (Jurkat cells [4]; 1.25 μg/ml hCD40-Fc) was 10, the “CD40L levels in supernatant” value (Jurkat cells [4]; 1.25 μg/ml mCD40-Fc) was 10 and the “shedding of CD40L” value (Jurkat cells [4]; untreated or with human or mouse CD40-Fc) was “no shedding”. For the same molecule, the “CD40L levels in supernatant” value (Jurkat cells [4]; Untreated) was 10, the “CD40L expression (percentage of CD40L expressing T cells)” value (T cells (CD4 and CD8); CD4+) was 95.5% and the “CD40L expression (percentage of CD40L expressing T cells)” value (T cells (CD4 and CD8); CD8+) was 86.7%. The “expression of CD40L” value (T cells (CD4 and CD8); T cells, day 4, CD4 and CD8 subpopulations) was “High expression of CD40L”.
